Test: soluble on expression in E. coli; label from the status in PepcDB or PDB records

Row | Sequence | soluble on expression in E. coli
1 | MMEYKIVENGLTYRIGNGASVPISNTGELIKGLRNYGPYEVPSLKYNQIALIHNNQFSSLINQLKSQISSKIDEVWHIHNINISEFIYDSPHFDSIKSQVDNAIDTGVDGIMLVLPEYNTPLYYKLKSYLINSIPSQFMRYDILSNRNLTFYVDNLLVQFVSKLGGKPWILNVDPEKGSDIIIGTGATRIDNVNLFCFAMVFKKDGTMLWNEISPIVTSSEYLTYLKSTIKKVVYGFKKSNPDWDVEKLTLHVSGKRPKMKDGETKILKETVEELKKQEMVSRDVKYAILHLNETHPFWVMGDPNNRFHPYEGTKVKLSSKRYLLTLLQPYLKRNGLEMVTPIKPLSVEIVSDNWTSEEYYHNVHEILDEIYYLSKMNWRGFRSRNLPVTVNYPKLVAGIIANVNRYGGYPINPEGNRSLQTNPWFL | soluble
2 | MGSDKIHHHHHHMTVNSIKLLLLPALLLLVSACSSPEPIISLSGSTMGTTYHIKVVNSDRLPEAQLLQAEIDMALEVVNDQMSTYRSDSELSKFNQLQVQQSVKVSADTIKVIEEGMRLYQETDGALDITLGPVVNLWGFGPDKRPTTIPTQAQIDNAKAKMGIKELSIKGLTLTKHNADLYVDLSSIAKGFGVDKIAAILDKYHVSGYLVEIGGELNVKGTKDDNTPWRVAVEQPTTEGQAVQQVIEPGTMSLATSGDYRNFYQENGERFSHLIDPRNGYPIKHQLASATVLHSSCMTADGYATAMMVLGTEASLALAKEKNLAIMLIEKQEQGYQVYYSDAFKSYVK | not soluble
3 | MAHHHHHHMEGARGSTLQVCGERHTMSLSLATALYADATRLYRLGDLHHARGAAEEALLSLSHSPHSDISDHTNHRHGDAHHEEAADSVSVGCEGSQAQQRQRHRLFGNTLLLLSSIYMAVQDYAEAERLLVTCDGYWRERLTSTHTRLSSVGTSAEVECACCSELDEGLAGVAYNRAVLRLEQLRRTPSFPASRDDGELWVAPPADLCGTDARLTYSLIPLSSTAASSGTPETLLASVMALLLDAQDRLAHTLGPPRGLLADVLHTIGVCHYEAADYIAALQAWQRSMAIRVHLQALRRRSDKNAAQRALHGGGGGECGDGTEELKLALTMEHVAQVYRLLEGRSVEALKLLDTVAATRRRYLGPTDPLCVRTLVLKGVLAAELGHTQLARALLERCSAIGGDASPETPPPSSSAYAVQEVEQ | soluble
4 | LMPLRDIVIFPTMVQPLFVGRRFSIRAIEEANKKDKLIFLVLQKDKDVEEPKEEDIYKVGVVAYILRTVPIEDARVKVLVQGLKRGVIKKLEWKEDHYVAQVDVIEERDIPPESQTIEDKALIKAVKESIDKLVSLGKQIIPDLVVLIKELEEPGKLADMVASILDIKSSQAQEILETFDPRERLKK | soluble
5 | MLLSGERIDQLYADDIQIIQSKEVFSFSIDAVLLANFPQLPKKGKIVDLCAGNGAVGLFVSRKTAAKIDQIELQPRLADMGQRSILLNKLEKQVTMYERDLKQATEVIKKDSVDLVLCNPPYFKERPTSQKNPNPHLAIARHEIHTSLQEVVTVSADLLKTNGRLAMVHRPDRFLDILHAMENANIAPKKARFVYPKPGKEANVLLIEGIKQGKKDGFRVLPPLFTYNEKNEYEAEMKAMLYGE | not soluble
6 | MPRFSNKTVIITGSSNGIGRTTAILFAQEGANVTITGRSSERLEETRQIILKSGVSEKQVNSVVADVTTEDGQDQIINSTLKQFGKIDVLVNNAGAAIPDAFGTTGTDQGIDIYHKTLKLNLQAVIEMTKKVKPHLVASKGEIVNVSSIVAGPQAQPDFLYYAIAKAALDQYTRSTAIDLAKFGIRVNSVSPGMVETGFTNAMGMPDQASQKFYNFMASHKECIPIGAAGKPEHIANIILFLADRNLSFYILGQSIVADGGTSLVMGTQAHDVMSIMSSH | soluble
7 | MARGCDLCFPGRKAVVFVTGLCDDSCFYCPVSRAKLGRDVFYVNEVPVASVEEAVAEVLRTGASGASLTGGDPLVALHRTLDVARALKSELGRGFHIHLYTSGRRMTPEVARALWEAGVDEVRIHPTERSLLSRVGMVKRYTGMSVGVEMPIAPGLEELAIEAVKTVEAVGGDFVNLNEMEIVEPNARALLARGYTESGERPFTVRGALEAVLRVLEWAAENSSVPVHFCPASFKDSIQTGNRLRSSAARDAYWYEEPTPHGTLTWGEVRGGSPPPGLGEERGGRIMLPPRADLLETVVRMYGGEAYIVEAHPTPSRTPIVSERRIA | not soluble
8 | MYKDFANFIRTNKADLLNNWMNEMEKQSDQLINDIAKEAMYEETSKEFVDLIVSNVTENGSKFNEKLDDFAEKVVHLGWPIHFVTTGLRVFGLLVYTAMRDEDLFLKREEKPEDDAYYRFETWLSSMYNKVVTAYADTWEKTVSIQKSALQELSAPLLPIFEKISVMPLIGTIDTERAKLIIENLLIGVVKNRSEVVLIDITGVPVVDTMVAHHIIQASEAVRLVGCQAMLVGIRPEIAQTIVNLGIELDQIITTNTMKKGMERALALTNREIVEKEG | not soluble
9 | MGSDKIHHHHHHMCMTSPDQLTASESADTASAHKRVLVAAPRGYCAGVDRAVETVEKALEKYGAPVYVRKEIVHNRYVVDTLAERGAIFVDETTEAPEGAHLVFSAHGVSPAVHKEAEALSLKTLDATCPLVTKVHNEVKRFARDGYHILLVGHEGHEEVEGTAGEAPDVTHLVDGVESVDKLPEFLHDEKLIWLSQTTLSVDETMTIVKKLHERFAHLQDPPSDDICYATQNRQVAVKAIAAESDVVIVVGSQNSSNSKRLVEVALQAGAGASYLVDYAHQIDESWLDGATTVGVSSGASVPEILVRGVLEFLDARGFHDVKEITTAAEKITFALPRDLRPART | not soluble
10 | MEEVEEFKYEPKSVKEIFIEMKDTVELMVDLAYASLLFGDKEIAEEVLELEERIDLLNYQLMMHSVLAARNVKEAEQVITILQIANAIEDISNAAGDLAKMVLEGVELHPVIKETILEGEEIIGKIQVYPESVIVGKTLGELDLATNTGVWIIAVRRGKRWIFGPNENFKIRAGDVLIGRGTRTSIDHLKEIARGAIRVIGNERA | soluble
11 | AHHHHHHASAKWVCKICGYIYDEDAGDPDNGISPGTKFEELPDDWVCPICGAPKSEFEKLEDGSRFIDSNVFLYAMIKPKGNTSKEILKKKEKAKKILLRVENGEDVVTTLIHLSEIANILEAKVNLTTAVRFLENLLLAENVKILPVSVEEYLKAVLISKEKGISVNDALAYLKMKELNIKEIYTFDRHFQNLDVEVIQD | soluble
12 | MSLKITSISVQQKNKERYNIFIDEKYNFSVDEEVLARYQLMKGKTLTEADIEEIKQADMVRKGLNKAINFLSHRVRSEKEIRDYLRKQEMEPFAVDEILKKLADMDYINDVEFAELYTKTQIKTTLKGPRTIERELVEKGLTREIISQVMEEYASDIQLENATKQAMKIMKRNNKSAKKMLQQKIITDLIQKGYSSEVAKMAAIEATSELDVADEADILQKQVEKTIRKNKRYKPSIAKQKTITSLMQKGFSYDTIQSYLTENEISEGHHHHHH | not soluble
13 | MLTSEIAACCKKLRLSRNIVEMSGKIQADNHQEYLLKLLKSEIIHREKTRNAKLLRKAGFYTIKTFESFRFDEVTLPGDITPEYLKECEFVKNKTNIVMYGNVGTGKTHLSIALGVEACKRGYEVRFFRTSALVNKLAEEKRVGTLSSFLKKLNKAELLICDEWRYVPLDRIGAQLLFEVISERYENKAVIINTNIEFSRWVNIFYDEQMTGAIVDRILHHCHLLLFFGQSNRMRESRLNT | not soluble
14 | MGHHHHHHSHMLSSNGASKVANSEAMILDKNLESVNSPIEKSSVNYEPSNPSEKGSKKINLSSDQNKSVSESNNDDVMLISVESPNLTTPTTSNPTDTRKITSGNSSNSPNAEVMAVQKKLDSIIDLTKEGLSNCNTESPVSPLESHSKAASNSKETTPLAQNAVQVPESFEHLPPLPEPPAPLPELVDKTRDTLPPQKPELKVKRVFRPNGIALTWNITKINPKCAPVESYHLFLCHENSNNKLIWKKIGEIKALPLPMACTLSQFLASNRYYFTVQSKDIFGRYGPFCDIKSIPGFSENLT | soluble
15 | NMAGMNDKASMNDKASMTVKINESLPQGNGKALGTVTVTETAYGLLFTPHLTGLAPGIHGFHLHEKPSCAPGMKDGKAVPALAAGGHLDPNKTGVHLGPYNDKGHLGDLPGLVVNADGTATYPVLAPRLKSLSEVKQHALMIHAGGDNYSDHPMPLGGGGARMACGVIE | soluble
16 | MGLKEKLIRKGKYIWELPKETIEGQRVPVILYLSDALFELLEEDALRQAANAATLPGVEKAIYVMPDVHVGYGFPVGGVMATNTETGIISPGSIGYDINCGVRLIATNLKAVDVAPRIKEIMNNMLKNVPAGVGSTSEIKLSKSQMKEVLVKGAGWAVEHGFGFPEDLQHIEGFGALPNADPEKASHEAYERGSDELGTVGSGNHFVEVQAVEQIYEPEIAEKLGIWEGQVMVMVHSGSRGFGHQVCTDYLRVALKVRDKYKIKLPDPQLACMPFNSPEGQAYFKAMNAAANYAFANRQILGFKAANTVRKTLGISWEEFGYRLIYDHAHNIGKVEKHEVDGKKVEVIVHRKGATRAFPPYNPEVPPAYREVGQPVIIPGDMGRASFLLVGQTNSMKMSFGTACHGAGRVMSRRQAKKYVKEVGLEKVIGNLVVVARGKGTIMEEIPQAYKDVTEVVRVIDELGIAKAVARLKPLGTLKG | soluble
17 | MGSDKIHHHHHHMPRHVSNLELHNQIQEAALQSHLVPLGSIQLTPHFIPVEGLRRSIQRALKNCQPQDFLYCNKQGHEQLRKALSDHWREDGIYIAPEDIFITNGCMPALSLVIQKLTEVGDSILIPTPTYNGHLQLLASLKRQIVEIPADHRGIDLERLESLMQQGLAKVCLMTANYQNPLGYCFSNAEKQKIAELAAEYQCFIIEDDIFGECGYSSERPLPIRYWDREGYVVWCGSVSKSLSSAYRVGWFCLTTKLEHLKLELLVSNIGVNTPLQLGLADFIYSRGYREHLEQLRPNLMRQVEEYRSCILRAFEGIPIALSQPEGGYALWIQLPKSVDSLALYYTAQAQGITVVPGYVFGEDERYRHFIRLNAGHELTADVRQAIMSLADWSRQQMQTVS | not soluble
18 | MKKISEQKRKHLENLVDDQGIIGALAIDQRGALKRMMGKYKEVTAQEISDFKVLVSRCLTPETSAILLDPEYGLAAAENRAQTSGLLLAYEKTGYDASTPGRLPDSLDVWSVKRLKEAGADACKFLLYYDVDESEAINERKKAYIERIGSECLAEEIPFFLEIVSYDANNSDSASKEYAKVKPHKVIEAMKEFSKDRYNVDVLKVEVPVNMNFVEGFGTESLYSQDEAQAFFNMQSEATQLPFIFLSAGVSATMFQETLKFAKKAGSSFNGVLCGRATWADGVLPFVQQGAEAAVAWLETTGKTNVEELNQVLRESAVSVFEKIQ | not soluble
19 | MSKKFEGSVAPRERINISYVPKTDGQTAEVELPLNMLVVGDTGNTQETSSLDERQAVSVNKHNFGAVMAEAAIGLNFTVPATLKGSTTDDEMNVALNIKSLDDFSPDSVARQVPEVNKLLELREALTALKGPMGNLPAFRTQLQALLENEESREQLLKEIGQVSNK | soluble
20 | MGSDKIHHHHHHMTFEPYPFERLRALLKEITPKKRGLDLGIGEPQFETPKFIQDALKNHTHSLNIYPKSAFEESLRAAQRGFFKRRFKIELKENELISTLGSREVLFNFPSFVLFDYQNPTIAYPNPFYQIYEGAAKFIKAKSLLMPLTKENDFTPSLNEKELQEVDLVILNSPNNPTGRTLSLEELISWVKLALKHDFILINDECYSEIYENTPPPSLLEACMLAGNEAFKNVLVIHSLSKRSSAPGLRSGFIAGDSRLLEKYKAFRAYLGYTSANAIQKASEAAWLDDRHAEFFRNIYANNLKLARKIFKNTLIYPYSFYVYLPVQNGENFAKTLYQNEGIITLPALYLGRNRIGADYVRLALVYDTPLLEKPLEIIETYRENHA | not soluble
